Experimental data published in paper PMC2823633 (The Journal of neuroscience : the official journal of the …, 2009).

T1: GST fusion of the Mint1 PDZ-2 domain (740-825) (UniProt Q02410 740-825, Cys 742 replaced with Ser)
T1 sequence (looked up): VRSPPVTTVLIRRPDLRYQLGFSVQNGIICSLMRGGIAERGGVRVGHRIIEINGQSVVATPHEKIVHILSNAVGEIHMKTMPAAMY


molecular target: T1, GST fusion of the Mint1 PDZ-2 domain …; assay: ELISA

Binding result, binds:
TAKCAARFPTWL [synthetic artificial peptide TAKCAARFPTWL]
GHLSESSQVRWL [synthetic artificial peptide GHLSESSQVRWL (positive control)]
GVPARTQVAVAV [doubly substituted peptide GVPARTQVAVAV]
GVPARTQVEVWV [synthetic artificial peptide GVPARTQVEVWV]
ASYCKQRNIVWL [synthetic artificial peptide ASYCKQRNIVWL (positive control)]
